Columns and labels:
Amyloid beta (1-40) = experiment: SPR (BIAcore); SLF-CR pre-incubated with FKBP passed over immobilized Aβ(1-40); SLF-CR alone gave ~140 RUs; ternary FKBP/drug/Aβ complex
Amyloid beta (1-42) = experiment: cell-based or functional assay
Sequence of Amyloid beta (1-42) (peptide, as listed by the source): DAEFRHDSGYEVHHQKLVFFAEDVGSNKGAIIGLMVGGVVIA

Sequence of Amyloid beta (1-40) (peptide, as listed by the source): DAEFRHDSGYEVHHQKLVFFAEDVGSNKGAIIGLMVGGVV

SPR response (Amyloid beta (1-40)) | IC50 in thioflavin T aggregation assay (drug concentration, FKBP 1 uM) (Amyloid beta (1-42)) | Substance
230 RU | – | FKBP12 pre-incubated with the bifunctional compound SLF-CR (SLF-Congo red) (from UniProt P62942 2-108) (enzyme)
– | 50 nM | FKBP12 with the bifunctional compound SLF-Benz-CR (from UniProt P62942 2-108) (enzyme)

Reference: patent publication US7923230
